Reference: patent publication US20090117096A1 (Scripps Research, published 2009)

Experiments:
[1] = target: T1, integrin α5β1 (human, UniProt P08648 42-1049; P05556 21-798); test: flow cytometry on human tumor cell panel (FIG. 1)
T1 construct: whole, on cells
Description: Flow cytometry. scFv binding to human tumor cells was analyzed by flow cytometry, initially with cloned scFv phage and then with purified scFv protein. […] Binding/washing buffer was TBS with or without divalent cations (1 mM Ca²⁺, 1 mM Mg²⁺, 0.2 mM Mn²⁺). […] All samples were counter stained with propidium iodide (PI) and analyzed on a Becton-Dickinson FACScan, with live gate set to exclude PI positive cells.

[2] = target: T2, integrin αvβ5 (human, UniProt P06756 31-1048; P18084 24-799); test: flow cytometry on human tumor cell panel (summary statement)
T2 construct: whole, on cells

[3] = target: T3, integrin αvβ1 (human, UniProt P06756 31-1048; P05556 21-798); test: as above
T3 construct: whole, on cells

Measured: binding result

T1 sequence (P08648 42-1049, chain 1 of 2): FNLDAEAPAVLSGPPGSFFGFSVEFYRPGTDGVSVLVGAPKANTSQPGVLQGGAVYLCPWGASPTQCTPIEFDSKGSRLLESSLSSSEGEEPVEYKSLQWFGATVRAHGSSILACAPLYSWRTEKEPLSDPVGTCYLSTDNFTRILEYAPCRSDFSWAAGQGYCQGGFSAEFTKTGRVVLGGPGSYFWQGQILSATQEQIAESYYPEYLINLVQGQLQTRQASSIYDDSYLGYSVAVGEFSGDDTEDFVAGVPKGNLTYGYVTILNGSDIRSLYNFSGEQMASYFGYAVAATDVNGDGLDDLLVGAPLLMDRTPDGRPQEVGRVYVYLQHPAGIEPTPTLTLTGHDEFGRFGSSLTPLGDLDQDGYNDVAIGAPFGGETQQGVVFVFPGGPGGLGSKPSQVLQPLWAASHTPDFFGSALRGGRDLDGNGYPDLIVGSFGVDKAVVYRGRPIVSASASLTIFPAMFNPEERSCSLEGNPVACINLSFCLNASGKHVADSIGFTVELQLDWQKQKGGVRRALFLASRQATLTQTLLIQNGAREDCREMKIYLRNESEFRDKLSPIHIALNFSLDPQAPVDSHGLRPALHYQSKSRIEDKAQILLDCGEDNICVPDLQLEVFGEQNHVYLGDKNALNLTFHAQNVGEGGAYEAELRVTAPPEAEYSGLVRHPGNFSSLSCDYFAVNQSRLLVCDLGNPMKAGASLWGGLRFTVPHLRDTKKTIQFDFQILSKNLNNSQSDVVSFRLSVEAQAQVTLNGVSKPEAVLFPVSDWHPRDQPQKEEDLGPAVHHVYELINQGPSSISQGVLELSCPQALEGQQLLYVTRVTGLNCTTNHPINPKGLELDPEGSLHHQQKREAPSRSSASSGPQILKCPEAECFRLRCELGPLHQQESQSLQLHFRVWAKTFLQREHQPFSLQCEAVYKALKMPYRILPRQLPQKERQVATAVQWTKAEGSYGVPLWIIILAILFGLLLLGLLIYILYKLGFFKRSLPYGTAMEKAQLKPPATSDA
T1 sequence (P05556 21-798, chain 2 of 2): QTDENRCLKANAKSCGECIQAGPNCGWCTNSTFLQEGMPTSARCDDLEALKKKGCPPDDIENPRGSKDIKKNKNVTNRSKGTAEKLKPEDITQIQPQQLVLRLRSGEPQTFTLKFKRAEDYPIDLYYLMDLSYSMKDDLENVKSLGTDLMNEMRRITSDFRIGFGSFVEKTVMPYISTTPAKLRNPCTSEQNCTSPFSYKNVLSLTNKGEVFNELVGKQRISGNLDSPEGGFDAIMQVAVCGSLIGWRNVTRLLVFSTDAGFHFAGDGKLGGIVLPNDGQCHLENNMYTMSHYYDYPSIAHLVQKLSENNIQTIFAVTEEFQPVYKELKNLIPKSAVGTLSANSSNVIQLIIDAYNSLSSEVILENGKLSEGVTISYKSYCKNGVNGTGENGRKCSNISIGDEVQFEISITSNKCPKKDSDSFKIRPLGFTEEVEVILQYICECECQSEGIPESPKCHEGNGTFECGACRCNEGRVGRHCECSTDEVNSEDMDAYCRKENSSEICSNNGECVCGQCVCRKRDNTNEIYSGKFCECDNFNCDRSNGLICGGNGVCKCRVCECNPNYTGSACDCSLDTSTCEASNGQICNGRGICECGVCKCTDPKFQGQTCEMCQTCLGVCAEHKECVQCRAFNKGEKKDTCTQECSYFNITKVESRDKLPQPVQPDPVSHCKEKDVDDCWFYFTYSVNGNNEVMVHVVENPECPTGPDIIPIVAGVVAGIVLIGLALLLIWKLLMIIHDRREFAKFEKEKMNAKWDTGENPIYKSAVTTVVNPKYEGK
T3 sequence (P06756 31-1048, chain 1 of 2): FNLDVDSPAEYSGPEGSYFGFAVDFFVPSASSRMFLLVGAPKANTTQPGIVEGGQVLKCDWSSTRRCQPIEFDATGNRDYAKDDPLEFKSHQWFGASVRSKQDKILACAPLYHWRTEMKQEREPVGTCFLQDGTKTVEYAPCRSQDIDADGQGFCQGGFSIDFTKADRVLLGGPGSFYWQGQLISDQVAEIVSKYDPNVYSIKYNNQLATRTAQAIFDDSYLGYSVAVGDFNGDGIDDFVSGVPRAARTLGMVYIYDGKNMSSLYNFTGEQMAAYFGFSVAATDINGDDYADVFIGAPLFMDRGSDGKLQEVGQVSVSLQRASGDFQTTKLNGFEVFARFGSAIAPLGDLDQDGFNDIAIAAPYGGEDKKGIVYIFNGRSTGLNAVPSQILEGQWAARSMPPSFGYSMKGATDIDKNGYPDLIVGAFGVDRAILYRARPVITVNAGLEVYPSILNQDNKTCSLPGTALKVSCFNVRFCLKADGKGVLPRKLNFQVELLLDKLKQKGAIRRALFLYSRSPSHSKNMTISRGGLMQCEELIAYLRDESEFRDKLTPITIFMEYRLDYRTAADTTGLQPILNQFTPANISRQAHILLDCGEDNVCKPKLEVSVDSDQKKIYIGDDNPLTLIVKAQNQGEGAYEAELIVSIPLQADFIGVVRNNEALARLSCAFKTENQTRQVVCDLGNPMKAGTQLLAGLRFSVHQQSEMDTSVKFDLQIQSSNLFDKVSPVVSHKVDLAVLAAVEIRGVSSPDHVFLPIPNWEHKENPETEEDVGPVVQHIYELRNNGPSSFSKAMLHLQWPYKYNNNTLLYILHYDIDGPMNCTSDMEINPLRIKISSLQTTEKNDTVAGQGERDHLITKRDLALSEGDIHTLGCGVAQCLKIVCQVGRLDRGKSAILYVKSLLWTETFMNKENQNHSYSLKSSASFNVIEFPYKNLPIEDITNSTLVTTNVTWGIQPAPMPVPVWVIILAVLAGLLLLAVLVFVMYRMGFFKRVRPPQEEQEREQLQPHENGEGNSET
T3 sequence (P05556 21-798, chain 2 of 2): as the sequence (P05556 21-798, chain 2 of 2) above
T2 sequence (P06756 31-1048, chain 1 of 2): as the sequence (P06756 31-1048, chain 1 of 2) above
T2 sequence (P18084 24-799, chain 2 of 2): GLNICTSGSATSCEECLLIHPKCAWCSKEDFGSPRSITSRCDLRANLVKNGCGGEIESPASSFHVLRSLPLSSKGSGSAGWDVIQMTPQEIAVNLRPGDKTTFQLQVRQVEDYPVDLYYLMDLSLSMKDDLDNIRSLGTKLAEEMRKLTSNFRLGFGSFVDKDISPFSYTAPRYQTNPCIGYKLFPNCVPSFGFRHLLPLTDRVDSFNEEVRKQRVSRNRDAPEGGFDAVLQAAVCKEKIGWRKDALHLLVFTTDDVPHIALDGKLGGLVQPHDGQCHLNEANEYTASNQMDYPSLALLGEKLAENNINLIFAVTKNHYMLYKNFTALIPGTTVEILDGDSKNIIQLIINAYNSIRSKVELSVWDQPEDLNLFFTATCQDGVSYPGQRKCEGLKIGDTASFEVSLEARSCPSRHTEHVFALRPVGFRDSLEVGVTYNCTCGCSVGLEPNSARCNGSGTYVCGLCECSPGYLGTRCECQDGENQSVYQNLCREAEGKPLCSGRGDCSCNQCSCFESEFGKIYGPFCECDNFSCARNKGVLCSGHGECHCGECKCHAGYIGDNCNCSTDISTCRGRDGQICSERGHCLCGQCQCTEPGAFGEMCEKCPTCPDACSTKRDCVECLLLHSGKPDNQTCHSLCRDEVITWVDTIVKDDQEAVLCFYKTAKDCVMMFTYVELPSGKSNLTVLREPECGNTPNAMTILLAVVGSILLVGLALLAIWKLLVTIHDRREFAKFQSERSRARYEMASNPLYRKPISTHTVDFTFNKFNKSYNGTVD

B1: scFv antibody Bc-12 (scFv)
scFv: MAQVQLVQSGAEVKKPGASVKVSCKASGYTFSNYGITWVRQAPGQGLEWMGWINNGNTHYAQKFQGRVTMTTDTSTSTAYMELRSLRSDDTAVYYCARDPRGDDEPYWGQGTLVTVSSGGGGSGGGGSGGGGSEIVLTQSPLSLPVTLGQPASISCRSSQNLVYSDGNTYLSWFQQRPGQSPRRLIYKVSNRDSGVPDRFSGSGSGTDFTLKISRVEAEDIGVYYCMQGTHWPPRTFGQGTKVEIKRGLGGLVDYKDDDDK
notes: also called scFv Bc-12
no binding: [1] | [2] | [3]
